Assay results reported in article PMC5717350, “The human CTF4-orthologue AND-1 interacts with DNA polymerase α/primase via its unique C-terminal HMG box” (Open Biology, 2017).
No end group written: not given here.

Experiments:
[1] = target: T1, AND-1 (329–826), SepB domain (human, UniProt O75717 329-826); experiment: fluorescence polarisation; 30 nM fluorescein-labelled Pol α CIP peptide, AND-1 SepB titrated; 25 mM HEPES pH 7.2, 140 mM NaCl, 5 mM DTT, 5 mM MgCl2, 5% glycerol; 25°C; 96-well plate; conditions: both partners purified
T1 construct: human AND-1, residues 329-826 (SepB domain); residues 329-420 and 824-826 not in the final crystallographic model; Trimer arises from crystallographic symmetry (one protomer per asymmetric unit); also called AND-1 SepB
T1 sequence (looked up): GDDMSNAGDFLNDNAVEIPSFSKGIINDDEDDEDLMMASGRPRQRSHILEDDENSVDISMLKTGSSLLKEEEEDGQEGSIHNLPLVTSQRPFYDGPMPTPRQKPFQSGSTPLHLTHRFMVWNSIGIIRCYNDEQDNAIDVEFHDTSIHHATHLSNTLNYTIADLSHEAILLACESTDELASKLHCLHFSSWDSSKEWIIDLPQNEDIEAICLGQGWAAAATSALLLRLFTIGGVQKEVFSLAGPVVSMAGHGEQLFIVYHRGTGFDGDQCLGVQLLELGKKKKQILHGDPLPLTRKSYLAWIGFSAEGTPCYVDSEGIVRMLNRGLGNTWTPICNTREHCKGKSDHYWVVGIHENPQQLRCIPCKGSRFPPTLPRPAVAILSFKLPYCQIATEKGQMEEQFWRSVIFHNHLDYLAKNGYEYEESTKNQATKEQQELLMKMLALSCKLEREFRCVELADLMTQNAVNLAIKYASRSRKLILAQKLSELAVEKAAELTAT

AND-1CT = target: T2, AND-1CT (human, UniProt O75717 837-1129); experiment: fluorescence anisotropy; FP: 25 mM HEPES pH 7.2, 100 mM KCl, 0.5 mM TCEP, 20 nM DNA, 25 C; EMSA: 25 mM HEPES pH 7.2, 100 mM KCl, 5 mM MgCl2, TCEP, 3 uM DNA, 0.75% (so in the source) agarose gel in 0.5x Tris-borate pH 8.3, 4 C; conditions: protein: recombinant; tags: none (His6-MBP removed by TEV); label: 5' 6FAM; single strand
T2 sequence: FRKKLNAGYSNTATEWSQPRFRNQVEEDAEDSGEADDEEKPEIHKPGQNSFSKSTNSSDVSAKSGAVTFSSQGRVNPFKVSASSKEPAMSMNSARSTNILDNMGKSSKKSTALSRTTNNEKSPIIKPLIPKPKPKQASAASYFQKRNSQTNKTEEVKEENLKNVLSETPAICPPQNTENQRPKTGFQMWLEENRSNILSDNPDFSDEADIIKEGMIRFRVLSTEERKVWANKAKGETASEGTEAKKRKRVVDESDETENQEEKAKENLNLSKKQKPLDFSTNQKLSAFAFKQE

AND-1 full length [2] = target: T3, AND-1 full length (human, UniProt O75717 1-1129); experiment: as above; conditions: protein: recombinant; tags: His10-myc; chain copies: 3; label: 5' 6FAM; single strand
T3 sequence: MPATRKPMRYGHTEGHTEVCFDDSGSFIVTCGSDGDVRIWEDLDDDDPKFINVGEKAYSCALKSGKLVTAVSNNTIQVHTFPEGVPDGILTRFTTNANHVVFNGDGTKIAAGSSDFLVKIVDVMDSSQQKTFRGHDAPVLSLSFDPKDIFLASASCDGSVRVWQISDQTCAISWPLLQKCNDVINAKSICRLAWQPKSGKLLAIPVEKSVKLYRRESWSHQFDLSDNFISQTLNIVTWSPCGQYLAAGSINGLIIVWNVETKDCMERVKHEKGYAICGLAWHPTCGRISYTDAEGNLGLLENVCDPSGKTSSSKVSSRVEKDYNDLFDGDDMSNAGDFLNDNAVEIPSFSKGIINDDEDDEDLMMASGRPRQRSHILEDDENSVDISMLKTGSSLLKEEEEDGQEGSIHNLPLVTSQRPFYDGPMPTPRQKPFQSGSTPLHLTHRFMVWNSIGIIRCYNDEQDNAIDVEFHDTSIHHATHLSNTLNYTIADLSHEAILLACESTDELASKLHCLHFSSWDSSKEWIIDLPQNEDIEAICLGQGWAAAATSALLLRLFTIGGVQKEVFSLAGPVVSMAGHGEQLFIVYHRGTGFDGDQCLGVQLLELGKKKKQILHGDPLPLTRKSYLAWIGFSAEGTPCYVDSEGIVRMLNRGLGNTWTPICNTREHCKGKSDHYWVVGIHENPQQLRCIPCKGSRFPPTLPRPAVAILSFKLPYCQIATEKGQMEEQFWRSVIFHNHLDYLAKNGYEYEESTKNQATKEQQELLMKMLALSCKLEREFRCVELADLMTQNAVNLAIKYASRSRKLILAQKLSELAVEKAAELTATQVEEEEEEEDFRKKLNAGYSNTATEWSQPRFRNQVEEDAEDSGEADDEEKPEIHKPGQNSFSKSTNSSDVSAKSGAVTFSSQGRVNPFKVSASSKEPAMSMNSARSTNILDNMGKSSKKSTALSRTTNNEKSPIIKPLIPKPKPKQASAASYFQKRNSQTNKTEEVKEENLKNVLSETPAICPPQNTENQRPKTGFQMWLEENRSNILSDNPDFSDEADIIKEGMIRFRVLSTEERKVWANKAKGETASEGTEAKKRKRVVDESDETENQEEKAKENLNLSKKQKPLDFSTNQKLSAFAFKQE

AND-1 full length [3] = target: T3, AND-1 full length; experiment: EMSA; 5 mM MgCl2; FP: 25 mM HEPES pH 7.2, 100 mM KCl, 0.5 mM TCEP, 20 nM DNA, 25 C; EMSA: 25 mM HEPES pH 7.2, 100 mM KCl, 5 mM MgCl2, TCEP, 3 uM DNA, 0.75% (so in the source) agarose gel in 0.5x Tris-borate pH 8.3, 4 C; conditions: protein: recombinant; tags: His10-myc; chain copies: 3; label: 5' 6FAM on strand 1; fork, 20 bp duplex (1:1-20 with 2:21-40), unpaired arms of 20 nt (1:21-40 3' arm, 2:1-20 5' arm)

B1: Fluorescein-labelled Pol α CIP peptide (152–171) (peptide)
peptide: DLSKDGLLGDILQDLNTETP
modifications: also: fluorescein label, position not given here
notes: source: synthetic peptide (Genosphere Biotechnologies)
Kd [1]: 39000 nM

CTTCCGAGACCTTGCCCATCCCGTAGAACCTGTTATCCAA (ssDNA) [ssDNA 40mer (oligo A)]
Kd (AND-1CT): ~800 nM
Kd (AND-1 full length [2]): ~800 nM

B2: fDNA (oligos A+C) (mixed)
DNA 1: CTTCCGAGACCTTGCCCATCCCGTAGAACCTGTTATCCAA
DNA 2: GCTACCTTTGAACCTACGATGATGGGCAAGGTCTCGGAAG
binding result (AND-1 full length [3]): binds
